# Experimental data reported in patent US20140087995A1 (published 2014).
# Numbered stars: 1 amine (or outer) side, 2 acyl side, 3 side chain; on linkers, the order of the positions; unused ones are H or OH. Bridge positions count the residues as written; N and C are the ends. Side chains are listed from the residue outwards. Ends that are not written are not given here. * marks the point of attachment. C20 diacid = O=C(O)CCCCCCCCCCCCCCCCCCC(=O)*; γGlu = O=C(O)[C@H](CCC(=O)[*:2])N[*:1]; AEEA = NCCOCCOCC(=O)O
# T1: human calcitonin receptor (human, UniProt P30988 25-474)
# T1 sequence (looked up): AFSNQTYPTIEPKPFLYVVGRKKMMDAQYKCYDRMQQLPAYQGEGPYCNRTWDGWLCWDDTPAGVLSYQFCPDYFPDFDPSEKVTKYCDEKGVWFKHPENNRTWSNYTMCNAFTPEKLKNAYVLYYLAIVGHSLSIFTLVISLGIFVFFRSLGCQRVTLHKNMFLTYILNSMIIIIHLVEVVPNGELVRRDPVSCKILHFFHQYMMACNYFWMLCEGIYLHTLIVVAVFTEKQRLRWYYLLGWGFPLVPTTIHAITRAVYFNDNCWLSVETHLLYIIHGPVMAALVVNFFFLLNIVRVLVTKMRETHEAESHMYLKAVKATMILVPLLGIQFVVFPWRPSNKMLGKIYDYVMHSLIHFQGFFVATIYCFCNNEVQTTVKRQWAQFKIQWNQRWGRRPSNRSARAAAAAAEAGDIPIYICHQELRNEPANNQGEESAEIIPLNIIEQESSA
# T2: human calcitonin receptor (human, UniProt P30988 25-474)
# T2 construct: whole, on cells; Used as membranes prepared from the transfected cells (Assay VII); also called hCTR; hCT
# T2 sequence (looked up): T1 sequence (looked up)
# B1: N^ε-[2-[2-[2-[[(4S)-4-carboxy-4-(19-carboxynonadecanoylamino)butanoyl]amino]ethoxy]ethoxy]acetyl]Lys[Arg1,Arg17,Pro21,Pro27,His35]-h-amylin (peptide)
# peptide: K([AEEA-γGlu-C20 diacid])RCNTATCATQRLANFLRHSSPNFGAIPSSTNVGSHTY-NH2
# modifications: disulfide 3-8; N-terminus assumed
# SMILES: CC[C@H](C)[C@H](NC(=O)[C@H](C)NC(=O)CNC(=O)[C@H](Cc1ccccc1)NC(=O)[C@H](CC(N)=O)NC(=O)[C@@H]1CCCN1C(=O)[C@H](CO)NC(=O)[C@H](CO)NC(=O)[C@H](Cc1c[nH]cn1)NC(=O)[C@H](CCCNC(=N)N)NC(=O)[C@H](CC(C)C)NC(=O)[C@H](Cc1ccccc1)NC(=O)[C@H](CC(N)=O)NC(=O)[C@H](C)NC(=O)[C@H](CC(C)C)NC(=O)[C@H](CCCNC(=N)N)NC(=O)[C@H](CCC(N)=O)NC(=O)[C@@H](NC(=O)[C@H](C)NC(=O)[C@@H]1CSSC[C@H](NC(=O)[C@H](CCCNC(=N)N)NC(=O)[C@@H](N)CCCCNC(=O)COCCOCCNC(=O)CC[C@H](NC(=O)CCCCCCCCCCCCCCCCCCC(=O)O)C(=O)O)C(=O)N[C@@H](CC(N)=O)C(=O)N[C@@H]([C@@H](C)O)C(=O)N[C@@H](C)C(=O)N[C@@H]([C@@H](C)O)C(=O)N1)[C@@H](C)O)C(=O)N1CCC[C@H]1C(=O)N[C@@H](CO)C(=O)N[C@@H](CO)C(=O)N[C@H](C(=O)N[C@@H](CC(N)=O)C(=O)N[C@H](C(=O)NCC(=O)N[C@@H](CO)C(=O)N[C@@H](Cc1c[nH]cn1)C(=O)N[C@H](C(=O)N[C@@H](Cc1ccc(O)cc1)C(N)=O)[C@@H](C)O)C(C)C)[C@@H](C)O
# notes: analogue of human amylin, extended by Lys at the N-terminus; also called compound 45
# B2: N^ε1-[(4S)-4-carboxy-4-(19-carboxynonadecanoylamino)butanoyl]-[Arg17,Pro21,Pro27]-h-amylin (peptide)
# peptide: K([γGlu-C20 diacid])CNTATCATQRLANFLRHSSPNFGAIPSSTNVGSNTY-NH2
# modifications: disulfide 2-7; N-terminus assumed
# SMILES: CC[C@H](C)[C@H](NC(=O)[C@H](C)NC(=O)CNC(=O)[C@H](Cc1ccccc1)NC(=O)[C@H](CC(N)=O)NC(=O)[C@@H]1CCCN1C(=O)[C@H](CO)NC(=O)[C@H](CO)NC(=O)[C@H](Cc1c[nH]cn1)NC(=O)[C@H](CCCNC(=N)N)NC(=O)[C@H](CC(C)C)NC(=O)[C@H](Cc1ccccc1)NC(=O)[C@H](CC(N)=O)NC(=O)[C@H](C)NC(=O)[C@H](CC(C)C)NC(=O)[C@H](CCCNC(=N)N)NC(=O)[C@H](CCC(N)=O)NC(=O)[C@@H](NC(=O)[C@H](C)NC(=O)[C@@H]1CSSC[C@H](NC(=O)[C@@H](N)CCCCNC(=O)CC[C@H](NC(=O)CCCCCCCCCCCCCCCCCCC(=O)O)C(=O)O)C(=O)N[C@@H](CC(N)=O)C(=O)N[C@@H]([C@@H](C)O)C(=O)N[C@@H](C)C(=O)N[C@@H]([C@@H](C)O)C(=O)N1)[C@@H](C)O)C(=O)N1CCC[C@H]1C(=O)N[C@@H](CO)C(=O)N[C@@H](CO)C(=O)N[C@H](C(=O)N[C@@H](CC(N)=O)C(=O)N[C@H](C(=O)NCC(=O)N[C@@H](CO)C(=O)N[C@@H](CC(N)=O)C(=O)N[C@H](C(=O)N[C@@H](Cc1ccc(O)cc1)C(N)=O)[C@@H](C)O)C(C)C)[C@@H](C)O
# notes: analogue of human amylin; also called compound 48
# B3: N^α1-[(4S)-4-carboxy-4-(19-carboxynonadecanoylamino)butanoyl]-[Glu14,Arg17,Pro21,Pro27]-h-amylin (peptide)
# peptide: KCNTATCATQRLAEFLRHSSPNFGAIPSSTNVGSNTY
# modifications: C20 diacid-gGlu acylated on the alpha amino group of the N-terminal residue (Lys 1); disulfide Cys2-Cys7; C-terminal amide
# notes: Derivative of human amylin; also called compound 9
# B4: N^α1-[(4S)-4-carboxy-4-(19-carboxynonadecanoylamino)butanoyl]-[Glu14,Arg17,Pro21,Pro27,Pro37]-h-amylin (peptide)
# peptide: {C20 diacid-γGlu}-KCNTATCATQRLAEFLRHSSPNFGAIPSSTNVGSNTP-NH2
# modifications: disulfide 2-7
# notes: Derivative of human amylin; also called compound 8
# B5: N^ε1-[(4S)-4-carboxy-4-[[(4S)-4-carboxy-4-(19-carboxynonadecanoylamino)butanoyl]amino]butanoyl]-[Glu14,Arg17,Pro21,Pro27,Pro37]-h-amylin (peptide)
# peptide: K([γGlu-γGlu-C20 diacid])CNTATCATQRLAEFLRHSSPNFGAIPSSTNVGSNTP-NH2
# modifications: disulfide 2-7 (inferred)
# notes: Derivative of human amylin; also called compound 13
# B6: N^α1-[(4S)-4-carboxy-4-(19-carboxynonadecanoylamino)butanoyl]-[Asp14,Arg17,Pro21,Pro27,Pro37]-h-amylin (peptide)
# peptide: {C20 diacid-γGlu}-KCNTATCATQRLADFLRHSSPNFGAIPSSTNVGSNTP-NH2
# modifications: disulfide 2-7
# SMILES: CC[C@H](C)[C@H](NC(=O)[C@H](C)NC(=O)CNC(=O)[C@H](Cc1ccccc1)NC(=O)[C@H](CC(N)=O)NC(=O)[C@@H]1CCCN1C(=O)[C@H](CO)NC(=O)[C@H](CO)NC(=O)[C@H](Cc1c[nH]cn1)NC(=O)[C@H](CCCNC(=N)N)NC(=O)[C@H](CC(C)C)NC(=O)[C@H](Cc1ccccc1)NC(=O)[C@H](CC(=O)O)NC(=O)[C@H](C)NC(=O)[C@H](CC(C)C)NC(=O)[C@H](CCCNC(=N)N)NC(=O)[C@H](CCC(N)=O)NC(=O)[C@@H](NC(=O)[C@H](C)NC(=O)[C@@H]1CSSC[C@H](NC(=O)[C@H](CCCCN)NC(=O)CC[C@H](NC(=O)CCCCCCCCCCCCCCCCCCC(=O)O)C(=O)O)C(=O)N[C@@H](CC(N)=O)C(=O)N[C@@H]([C@@H](C)O)C(=O)N[C@@H](C)C(=O)N[C@@H]([C@@H](C)O)C(=O)N1)[C@@H](C)O)C(=O)N1CCC[C@H]1C(=O)N[C@@H](CO)C(=O)N[C@@H](CO)C(=O)N[C@H](C(=O)N[C@@H](CC(N)=O)C(=O)N[C@H](C(=O)NCC(=O)N[C@@H](CO)C(=O)N[C@@H](CC(N)=O)C(=O)N[C@H](C(=O)N1CCC[C@H]1C(N)=O)[C@@H](C)O)C(C)C)[C@@H](C)O
# notes: Derivative of human amylin; also called compound 10
# B7: N^α1-[(4S)-4-carboxy-4-(19-carboxynonadecanoylamino)butanoyl]-[Glu14,Arg17,Pro21,Pro27,Asp35,Pro37]-h-amylin (peptide)
# peptide: {C20 diacid-γGlu}-KCNTATCATQRLAEFLRHSSPNFGAIPSSTNVGSDTP-NH2
# modifications: disulfide 2-7
# SMILES: CC[C@H](C)[C@H](NC(=O)[C@H](C)NC(=O)CNC(=O)[C@H](Cc1ccccc1)NC(=O)[C@H](CC(N)=O)NC(=O)[C@@H]1CCCN1C(=O)[C@H](CO)NC(=O)[C@H](CO)NC(=O)[C@H](Cc1c[nH]cn1)NC(=O)[C@H](CCCNC(=N)N)NC(=O)[C@H](CC(C)C)NC(=O)[C@H](Cc1ccccc1)NC(=O)[C@H](CCC(=O)O)NC(=O)[C@H](C)NC(=O)[C@H](CC(C)C)NC(=O)[C@H](CCCNC(=N)N)NC(=O)[C@H](CCC(N)=O)NC(=O)[C@@H](NC(=O)[C@H](C)NC(=O)[C@@H]1CSSC[C@H](NC(=O)[C@H](CCCCN)NC(=O)CC[C@H](NC(=O)CCCCCCCCCCCCCCCCCCC(=O)O)C(=O)O)C(=O)N[C@@H](CC(N)=O)C(=O)N[C@@H]([C@@H](C)O)C(=O)N[C@@H](C)C(=O)N[C@@H]([C@@H](C)O)C(=O)N1)[C@@H](C)O)C(=O)N1CCC[C@H]1C(=O)N[C@@H](CO)C(=O)N[C@@H](CO)C(=O)N[C@H](C(=O)N[C@@H](CC(N)=O)C(=O)N[C@H](C(=O)NCC(=O)N[C@@H](CO)C(=O)N[C@@H](CC(=O)O)C(=O)N[C@H](C(=O)N1CCC[C@H]1C(N)=O)[C@@H](C)O)C(C)C)[C@@H](C)O
# notes: Derivative of human amylin; also called compound 11
# B8: N^α1-[(4S)-4-carboxy-4-[[(4S)-4-carboxy-4-(19-carboxynonadecanoylamino)butanoyl]amino]butanoyl]-[Glu14,Arg17,Pro21,Pro27,Pro37]-h-amylin (peptide)
# peptide: {C20 diacid-γGlu-γGlu}-KCNTATCATQRLAEFLRHSSPNFGAIPSSTNVGSNTP-NH2
# modifications: disulfide 2-7
# SMILES: CC[C@H](C)[C@H](NC(=O)[C@H](C)NC(=O)CNC(=O)[C@H](Cc1ccccc1)NC(=O)[C@H](CC(N)=O)NC(=O)[C@@H]1CCCN1C(=O)[C@H](CO)NC(=O)[C@H](CO)NC(=O)[C@H](Cc1c[nH]cn1)NC(=O)[C@H](CCCNC(=N)N)NC(=O)[C@H](CC(C)C)NC(=O)[C@H](Cc1ccccc1)NC(=O)[C@H](CCC(=O)O)NC(=O)[C@H](C)NC(=O)[C@H](CC(C)C)NC(=O)[C@H](CCCNC(=N)N)NC(=O)[C@H](CCC(N)=O)NC(=O)[C@@H](NC(=O)[C@H](C)NC(=O)[C@@H]1CSSC[C@H](NC(=O)[C@H](CCCCN)NC(=O)CC[C@H](NC(=O)CC[C@H](NC(=O)CCCCCCCCCCCCCCCCCCC(=O)O)C(=O)O)C(=O)O)C(=O)N[C@@H](CC(N)=O)C(=O)N[C@@H]([C@@H](C)O)C(=O)N[C@@H](C)C(=O)N[C@@H]([C@@H](C)O)C(=O)N1)[C@@H](C)O)C(=O)N1CCC[C@H]1C(=O)N[C@@H](CO)C(=O)N[C@@H](CO)C(=O)N[C@H](C(=O)N[C@@H](CC(N)=O)C(=O)N[C@H](C(=O)NCC(=O)N[C@@H](CO)C(=O)N[C@@H](CC(N)=O)C(=O)N[C@H](C(=O)N1CCC[C@H]1C(N)=O)[C@@H](C)O)C(C)C)[C@@H](C)O
# notes: Derivative of human amylin; also called compound 14
# Target: T1, human calcitonin receptor
# Test: cell-based or functional assay
row,Binder,hCTR funct. EC50 [nM]
1,B1,10.1
2,B2,1.97

# Target: T2, human calcitonin receptor
# Test: ratio IC50 human calcitonin receptor / IC50 human amylin receptor (Assays VII and V)
# Description: The resulting pellet was resuspended, homogenized and centrifuged (20.000 rpm, 15 min) in a buffer containing 20 mM Na-HEPES and 0.1 mM EDTA (pH 7.4, buffer 2). The resulting pellet was resuspended in buffer 2 and protein concentration was measured (BCA protein Assay, Pierce). The homogenate was kept cold during the whole procedure. The membranes were kept at −80° C. until use. The assay was performed in a 384 well Optiplate (PerkinElmer) in a total volume of 40 ul. Membranes were mixed with SPA beads. Final concentration of membranes 35 ng/μL final and SPA beads was 0.05 mg/well. Test-compounds were dissolved in DMSO and further diluted in assay buffer (50 mM Hepes, pH 7.4, 1 mM CaCl2, 5 mM MgCl₂, 0.1% OA and 0.02% Tween20). […] The final mixture was incubated with shaking at 400 rpm for 120 min at 25° C. prior to centrifugation (1500 rpm, 10 min). Samples were analyzed on TopCounter™ (Packard). The IC₅₀ was calculated using (one site binding competition analysis) GraphPad Prism5 as a measure of receptor affinity.
# Membranes were prepared in the following way; the cells were rinsed with PBS and incubated with Versene for approximately 5 min before harvesting. The cells were flushed with PBS and the cell-suspension was centrifuged for 5 min at 1000 rpm. Cells were homogenized (Ultrathurrax) in a buffer containing 20 mM Na-HEPES and 10 mM EDTA (pH 7.4) and centrifuged at 20.000 rpm for 15 min. The resulting pellet was resuspended, homogenized and centrifuged (20.000 rpm, 15 min) in a buffer containing 20 mM Na-HEPES and 0.1 mM EDTA (pH 7.4, buffer 2). The resulting pellet was resuspended in buffer 2 and protein concentration was measured (BCA protein Assay, Pierce). The homogenate was kept cold during the whole procedure. The membranes were kept at −80° C. until use. Assay was performed in a 384 well Optiplate (PerkinElmer) in a total volume of 40 ul. Membranes were mixed with SPA beads.
row,Binder,Ratio hCT/hAmylin binding
1,B3,8
2,B4,0.5
3,B5,1.2
4,B6,1.2
5,B7,1
6,B8,2.2
